Patent US20200024320A1 (published 2020)
Where no end group is shown, it is not given here.

T1: MBP-RAMP2 ECD [L106R]-(GS)5-CLR ECD-H6 fusion protein (human, UniProt O60895 43-143; Q16602 29-144)
T1 chain: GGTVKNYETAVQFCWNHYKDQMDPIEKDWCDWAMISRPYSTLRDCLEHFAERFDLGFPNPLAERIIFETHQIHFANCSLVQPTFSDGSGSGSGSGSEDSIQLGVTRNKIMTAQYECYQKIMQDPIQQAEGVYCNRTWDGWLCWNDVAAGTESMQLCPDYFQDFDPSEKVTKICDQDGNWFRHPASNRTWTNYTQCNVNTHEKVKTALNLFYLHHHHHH


Biological target: T1, MBP-RAMP2 ECD [L106R]-(GS)5-CLR ECD-H6 …
Test: AlphaLISA competition, Biotin-AM probe

| Binder | fold increase in affinity (against AM(37-52)NH2) |
| --- | --- |
| DKDNVAPRSKISPWGY-NH2 [AM(37-52)NH2 [Q50W]] | ~100 fold |

Biological target: T1, MBP-RAMP2 ECD [L106R]-(GS)5-CLR ECD-H6 …
Test: AlphaLISA/AlphaScreen competition, RAMP2-CLR ECD

| Binder | IC50 |
| --- | --- |
| DKDNVAPRSKISPQGY-NH2 (also called WT (AM(37-52)NH2 scaffold)) [AM(37-52)NH2] | 5 to 15 µM |

Biological target: T1, MBP-RAMP2 ECD [L106R]-(GS)5-CLR ECD-H6 …
Test: FP competition, FITC-AM W/W probe, RAMP2-CLR ECD

| Binder | Ki | pKI |
| --- | --- | --- |
| DKDNVAPRSLISPWGY-NH2 [AM(37-52)NH2 [K46L, Q50W]] | 1.66 µM | 5.78 |
| DKDNVAPRSKISPQGY-NH2 (also called WT (AM(37-52)NH2 scaffold)) [AM(37-52)NH2] | 20.4 µM | 4.69 |
| DKFNVAPRSLISPWGF-NH2 [AM(37-52)NH2 [D39F, K46L, Q50W, Y52F]] | 30.3 µM | 4.55 |
| DKFNVAPRSLISPWGY-NH2 [AM(37-52)NH2 [D39F, K46L, Q50W]] | 1.83 µM | 5.74 |
| DKKNVAPRSKISPQGY-NH2 [AM(37-52)NH2 [D39K]] | 6.1 µM | 5.22 |
| DKDNVAPRSLISPWGF-NH2 [AM(37-52)NH2 [K46L, Q50W, Y52F]] | 89.1 µM | 4.05 |
| DKDNVAPRSKISPFGY-NH2 [AM(37-52)NH2 [Q50F]] | 2.14 µM | 5.67 |
| DKDNVAPRSKISPWGY-NH2 [AM(37-52)NH2 [Q50W]] | 0.316 µM | 6.5 |
| DKDNVAPRWLISPWGF-NH2 [AM(37-52)NH2 [S45W, K46L, Q50W, Y52F]] | 4.07 µM | 5.39 |
| DKDNVAPRWMISPWGF-NH2 [AM(37-52)NH2 [S45W, K46M, Q50W, Y52F]] | 7.76 µM | 5.11 |
| DKDNVAPRWWISPWGF-NH2 [AM(37-52)NH2 [S45W, K46W, Q50W, Y52F]] | 16.6 µM | 4.78 |
| DKDNVAPRWKISPWGY-NH2 (also called S45W/Q50W double mutant) [AM(37-52)NH2 [S45W, Q50W]] | 0.0813 µM | 7.09 |
| DKDNVAPRTLISPWGY-NH2 [AM(37-52)NH2[S45T, K46L, Q50W]] | 1.57 µM | 5.8 |
| DKDNVAPRTWISPWGY-NH2 [AM(37-52)NH2[S45T, K46W, Q50W]] | 12.5 µM | 4.9 |
| FVPTDVGPWSF-NH2 [CGRP(27-37)NH2 [N31D, S34P, K35W, A36S]] | 2.45 µM | 5.61 |
| FVPTDVGPWSY-NH2 [CGRP(27-37)NH2 [N31D, S34P, K35W, A36S, F37Y]] | 0.324 µM | 6.49 |
| FVPTDTGPWGY-NH2 [CGRP(27-37)NH2 [N31D, V32T, S34P, K35W, A36G, F37Y]] | 14.5 µM | 4.84 |
| FVPTDTGPWSF-NH2 [CGRP(27-37)NH2 [N31D, V32T, S34P, K35W, A36S]] | 2.75 µM | 5.56 |
| DKDNVAPRWLIGPWGF-NH2 [AM(37-52)NH2 [S45W, K46L, S48G, Q50W, Y52F]] | 1.25 µM | 5.9 |

Biological target: T1, MBP-RAMP2 ECD [L106R]-(GS)5-CLR ECD-H6 …
Test: FP competition; KI at RAMP1-CLR ECD over KI at RAMP2-CLR ECD

| Binder | Receptor Selectivity (fold) |
| --- | --- |
| DKDNVAPRSKISPFGY-NH2 [AM(37-52)NH2 [Q50F]] | 5 fold |
